The source of these data is the array DNA melting data of Ke et al..

The series can be described thus: melting temperature; melt of duplexes. The note with it: sodium 0.0675 M; strand 1 µM.
Usually Tm stands for the temperature at the midpoint of the melting transition. On to “CGACGTGCATTATGTGCTG+CAGCACATGCCGCACGTCG ((((((((...((((((((+))))))))...))))))))”, for which the Tm was 47.5 °C. Consider “CGACGTGCAGAATGTGCTG+CAGCACATTCTGCACGTCG (((((((((((((((((((+)))))))))))))))))))”, for which the Tm turned out to be 64.2 °C. The value for “CGACGTGCTTGATGTGCTG+CAGCACATGGAGCACGTCG (((((((((..((((((((+))))))))..)))))))))” was 54 °C; that for “CGACGTGCGACATGTGCTG+CAGCACATCAGGCACGTCG ((((((((...((((((((+))))))))...))))))))” was 49 °C. The value for “CGACGTGCCCTATGTGCTG+CAGCACATCGTGCACGTCG ((((((((.(.((((((((+)))))))).).))))))))” was 44.2 °C; that for “CGACGTGCGGTATGTGCTG+CAGCACATATGGCACGTCG ((((((((..(((((((((+)))))))))..))))))))” was 54 °C. For the substance “CGACGTGCGTGATGTGCTG+CAGCACATCGGGCACGTCG ((((((((..(((((((((+)))))))))..))))))))”, the Tm stood at 57.5 °C. The value for “CGACGTGCGTCATGTGCTG+CAGCACATAATGCACGTCG ((((((((.(.((((((((+)))))))).).))))))))” was 52.2 °C. Regarding “CGACGTGCACAATGTGCTG+CAGCACATATTGCACGTCG (((((((((..((((((((+))))))))..)))))))))”, the Tm turned out to be 48 °C. In the case of “CGACGTGCTGAATGTGCTG+CAGCACATATAGCACGTCG (((((((((..((((((((+))))))))..)))))))))” it was 53.7 °C; in that of “CGACGTGCACGATGTGCTG+CAGCACATCTGGCACGTCG ((((((((..(((((((((+)))))))))..))))))))”, 53.6 °C; in that of “CGACGTGCAGTATGTGCTG+CAGCACATACCGCACGTCG ((((((((.((((((((((+)))))))))).))))))))”, 55.7 °C. Regarding “CGACGTGCGGTATGTGCTG+CAGCACATCACGCACGTCG (((((((((..((((((((+))))))))..)))))))))”, the Tm was 56.7 °C. In the case of “CGACGTGCTGAATGTGCTG+CAGCACATTCGGCACGTCG ((((((((.((((((((((+)))))))))).))))))))” it was 60.6 °C. Regarding “CGACGTGCCGCATGTGCTG+CAGCACATCGAGCACGTCG ((((((((...((((((((+))))))))...))))))))”, the Tm was 54.5 °C. In the case of “CGACGTGCTTAATGTGCTG+CAGCACATTGCGCACGTCG ((((((((..(((((((((+)))))))))..))))))))” it was 50.1 °C; in that of “CGACGTGCTTGATGTGCTG+CAGCACATGCAGCACGTCG (((((((((..((((((((+))))))))..)))))))))”, 51.8 °C; in that of “CGACGTGCCTCATGTGCTG+CAGCACATAGTGCACGTCG ((((((((...((((((((+))))))))...))))))))”, 45.9 °C. “CGACGTGCGAAATGTGCTG+CAGCACATCCTGCACGTCG ((((((((...((((((((+))))))))...))))))))”: the Tm is 49.5 °C.

“CGACGTGCGGCATGTGCTG+CAGCACATGATGCACGTCG ((((((((..(((((((((+)))))))))..))))))))”: the Tm came to 58.7 °C. In the case of “CGACGTGCTATATGTGCTG+CAGCACATTGGGCACGTCG ((((((((...((((((((+))))))))...))))))))” it was 50.5 °C. The value for “CGACGTGCACTATGTGCTG+CAGCACATGTGGCACGTCG ((((((((...((((((((+))))))))...))))))))” was 48 °C; that for “CGACGTGCCAGATGTGCTG+CAGCACATACCGCACGTCG ((((((((...((((((((+))))))))...))))))))” was 47.6 °C.

For the substance “CGACGTGCCCGATGTGCTG+CAGCACATAGCGCACGTCG ((((((((.(.((((((((+)))))))).).))))))))”, the Tm was determined as 50.8 °C.

For the substance “CGACGTGCGACATGTGCTG+CAGCACATCGAGCACGTCG ((((((((...((((((((+))))))))...))))))))”, the Tm was determined as 54.8 °C.

With “CGACGTGCGATATGTGCTG+CAGCACATGGAGCACGTCG ((((((((...((((((((+))))))))...))))))))”, the Tm stood at 57.4 °C. In the case of “CGACGTGCACAATGTGCTG+CAGCACATGAAGCACGTCG ((((((((...((((((((+))))))))...))))))))” it was 49.9 °C; in that of “CGACGTGCAGAATGTGCTG+CAGCACATATAGCACGTCG ((((((((...((((((((+))))))))...))))))))”, 50.4 °C.

Turning to “CGACGTGCGTTATGTGCTG+CAGCACATCGCGCACGTCG (((((((((..((((((((+))))))))..)))))))))”, the Tm amounted to 54.6 °C. The value for “CGACGTGCGTGATGTGCTG+CAGCACATCTGGCACGTCG ((((((((..(((((((((+)))))))))..))))))))” was 55.7 °C; that for “CGACGTGCAACATGTGCTG+CAGCACATGAAGCACGTCG ((((((((..(((((((((+)))))))))..))))))))” was 54.3 °C.

Take “CGACGTGCACTATGTGCTG+CAGCACATACGGCACGTCG ((((((((..(((((((((+)))))))))..))))))))”: the Tm amounted to 46 °C.

Consider “CGACGTGCCATATGTGCTG+CAGCACATAGCGCACGTCG ((((((((..(((((((((+)))))))))..))))))))”, for which the Tm stood at 50 °C. As to “CGACGTGCCGGATGTGCTG+CAGCACATGTTGCACGTCG ((((((((...((((((((+))))))))...))))))))”, the Tm worked out at 48.1 °C. The value for “CGACGTGCGGAATGTGCTG+CAGCACATGCTGCACGTCG ((((((((.(.((((((((+)))))))).).))))))))” was 54.7 °C. In the case of “CGACGTGCGACATGTGCTG+CAGCACATTGCGCACGTCG (((((((((..((((((((+))))))))..)))))))))” it was 55.3 °C; in that of “CGACGTGCCGTATGTGCTG+CAGCACATTTCGCACGTCG ((((((((...((((((((+))))))))...))))))))”, 48.5 °C; in that of “CGACGTGCACGATGTGCTG+CAGCACATCAGGCACGTCG ((((((((..(((((((((+)))))))))..))))))))”, 53.4 °C.

Regarding “CGACGTGCTTGATGTGCTG+CAGCACATAACGCACGTCG ((((((((.(.((((((((+)))))))).).))))))))”, the Tm turned out to be 50.8 °C. Take “CGACGTGCCAAATGTGCTG+CAGCACATTTTGCACGTCG ((((((((.((((((((((+)))))))))).))))))))”: the Tm came to 55.1 °C.

With “CGACGTGCGGTATGTGCTG+CAGCACATGGTGCACGTCG ((((((((...((((((((+))))))))...))))))))”, the midpoint of thermal melting (Tm) worked out at 51.5 °C. Consider “CGACGTGCTCAATGTGCTG+CAGCACATTGCGCACGTCG ((((((((.((((((((((+)))))))))).))))))))”, for which the Tm was found to be 56.6 °C. For the substance “CGACGTGCCCTATGTGCTG+CAGCACATTGAGCACGTCG ((((((((.(.((((((((+)))))))).).))))))))”, the Tm was found to be 51.8 °C. “CGACGTGCAGGATGTGCTG+CAGCACATTTCGCACGTCG ((((((((...((((((((+))))))))...))))))))”: the Tm amounted to 51.1 °C. Regarding “CGACGTGCTGAATGTGCTG+CAGCACATAATGCACGTCG ((((((((...((((((((+))))))))...))))))))”, the Tm stood at 51 °C. In the case of “CGACGTGCTGAATGTGCTG+CAGCACATTGAGCACGTCG (((((((((.(((((((((+))))))))).)))))))))” it was 56.6 °C; in that of “CGACGTGCTTGATGTGCTG+CAGCACATTACGCACGTCG ((((((((.(.((((((((+)))))))).).))))))))”, 50.1 °C. “CGACGTGCGTGATGTGCTG+CAGCACATTAGGCACGTCG ((((((((.(.((((((((+)))))))).).))))))))”: the Tm was 54.1 °C.

On to “CGACGTGCCTCATGTGCTG+CAGCACATGAGGCACGTCG (((((((((((((((((((+)))))))))))))))))))”, for which the Tm was 65.8 °C. In the case of “CGACGTGCAATATGTGCTG+CAGCACATTGAGCACGTCG ((((((((...((((((((+))))))))...))))))))” it was 50.4 °C; in that of “CGACGTGCAAGATGTGCTG+CAGCACATCCGGCACGTCG ((((((((..(((((((((+)))))))))..))))))))”, 54.9 °C; in that of “CGACGTGCGCCATGTGCTG+CAGCACATGGCGCACGTCG (((((((((((((((((((+)))))))))))))))))))”, 68.7 °C. Take “CGACGTGCATGATGTGCTG+CAGCACATGTAGCACGTCG ((((((((...((((((((+))))))))...))))))))”: the Tm worked out at 49.9 °C. For “CGACGTGCAAAATGTGCTG+CAGCACATACAGCACGTCG ((((((((...((((((((+))))))))...))))))))”, the Tm was 49.7 °C. Turning to “CGACGTGCACGATGTGCTG+CAGCACATTGGGCACGTCG ((((((((.(.((((((((+)))))))).).))))))))”, the Tm is 56.4 °C. In the case of “CGACGTGCGGTATGTGCTG+CAGCACATAGCGCACGTCG (((((((((.(((((((((+))))))))).)))))))))”, the Tm turned out to be 62.5 °C. The value for “CGACGTGCCAAATGTGCTG+CAGCACATCCTGCACGTCG ((((((((...((((((((+))))))))...))))))))” was 48.5 °C.

As for “CGACGTGCTCAATGTGCTG+CAGCACATATAGCACGTCG (((((((((..((((((((+))))))))..)))))))))”, the Tm is 51.5 °C. The value for “CGACGTGCTCGATGTGCTG+CAGCACATGTTGCACGTCG ((((((((...((((((((+))))))))...))))))))” was 49.5 °C; that for “CGACGTGCGCTATGTGCTG+CAGCACATGGCGCACGTCG ((((((((((.((((((((+)))))))).))))))))))” was 63.2 °C. In the case of “CGACGTGCATGATGTGCTG+CAGCACATGAAGCACGTCG ((((((((.(.((((((((+)))))))).).))))))))” it was 50.3 °C. On to “CGACGTGCAGCATGTGCTG+CAGCACATCAGGCACGTCG ((((((((...((((((((+))))))))...))))))))”, for which the Tm was 47.3 °C.

“CGACGTGCAAAATGTGCTG+CAGCACATATGGCACGTCG ((((((((.(.((((((((+)))))))).).))))))))”: the Tm worked out at 50.3 °C.

As for “CGACGTGCCATATGTGCTG+CAGCACATGTTGCACGTCG ((((((((.(.((((((((+)))))))).).))))))))”, the midpoint of thermal melting (Tm) was found to be 50.8 °C. In the case of “CGACGTGCCGAATGTGCTG+CAGCACATTCAGCACGTCG ((((((((.((((((((((+)))))))))).))))))))” it was 57 °C; in that of “CGACGTGCAACATGTGCTG+CAGCACATAGGGCACGTCG ((((((((...((((((((+))))))))...))))))))”, 49.1 °C.
